In publication PMC9274624:
pKd: −log10 of the molar value.

How the values were obtained:
Test in all cases: SPR
[1] = biological target: sheep ACE2 extracellular domain (residues 1-740) fused with the Fc domain of mouse IgG (sheep)
[2] = biological target: wild Bactrian camel ACE2 extracellular domain (residues 1-740) fused with the Fc domain of mouse IgG (wild Bactrian camel)
[3] = biological target: big-eared horseshoe bat ACE2 extracellular domain (residues 1-740) fused with the Fc domain of mouse IgG (big-eared horseshoe bat)
[4] = biological target: goat ACE2 extracellular domain (residues 1-740) fused with the Fc domain of mouse IgG (goat)
[5] = biological target: alpaca ACE2 extracellular domain (residues 1-740) fused with the Fc domain of mouse IgG (alpaca)
[6] = biological target: fulvous fruit bat ACE2 extracellular domain (residues 1-740) fused with the Fc domain of mouse IgG (fulvous fruit bat)
[7] = biological target: rabbit ACE2 extracellular domain (residues 1-740) fused with the Fc domain of mouse IgG (rabbit) (UniProt G1TEF4)
[8] = biological target: mink ACE2 extracellular domain (residues 1-740) fused with the Fc domain of mouse IgG (mink)
[9] = biological target: monkey ACE2 extracellular domain (residues 1-740) fused with the Fc domain of mouse IgG (monkey) (UniProt F7AH40)
[10] = biological target: fox ACE2 extracellular domain (residues 1-740) fused with the Fc domain of mouse IgG (fox)
[11] = biological target: horse ACE2 extracellular domain (residues 1-740) fused with the Fc domain of mouse IgG (horse) (UniProt F6V9L3)
[12] = biological target: pig ACE2 extracellular domain (residues 1-740) fused with the Fc domain of mouse IgG (pig) (UniProt K7GLM4)
[13] = biological target: raccoon dog ACE2 extracellular domain (residues 1-740) fused with the Fc domain of mouse IgG (raccoon dog) (UniProt B4XEP4)

SARS-CoV-2 Delta RBD (residues 319-541) (from UniProt P0DTC2 319-541) (domain or fragment)
pKd [1]: 7.22
pKd [2]: 6.63
pKd [3]: 7.30
pKd [4]: 7.18
pKd [5]: 6.42
pKd [6]: 6.70
pKd [7]: 7.23
pKd [8]: 6.54
pKd [9]: 7.78
pKd [10]: 7.45
pKd [11]: 7.10
pKd [12]: 7.19
pKd [13]: 6.91
